The labels stand for the following.
B1: suPAR_DB06_F07 (scFv, V domains shown)
VH: QVQLVQSGAEVKKPGASVKVSCKASGYTFTNYYMHWVRQAPGQGLEWMGWIDHENGNTIYDQKFQGRVTMTRDTSTSTVYMELSSLRSEDTAVYYCARGYDVDWFVYWGQGTLVTVSS
VL: DIQMTQSPSSLSASVGDRVTITCSARSSVSYMYWYQQKPGKAPKLLIYRTSNLASGVPSRFSGSGSGTDFTLTISSLQPEDFATYYCQQYHSYPPTFGGGTKVEIK
B2: suPAR_DB06_F02 (scFv, V domains shown)
VH: B1 VH with N57S, I59S
VL: B1 VL with S24R, S27Q
B3: suPAR_DB06_C12 (scFv, V domains shown)
VH: B1 VH with T28S, N31A, Y32N, M34I, R98N
VL: B1 VL
B4: suPAR_DB06_E10 (scFv, V domains shown)
VH: B1 VH with Y27D, T30I, N31S, H53P
VL: B1 VL
B5: suPAR_DB06_D06 (scFv, V domains shown)
VH: B1 VH with H53P, D61A
VL: B1 VL
B6: suPAR_DB06_C11 (scFv, V domains shown)
VH: B1 VH
VL: B1 VL with S27Q
B7: suPAR_DB06_C06 (scFv, V domains shown)
VH: B1 VH with T30S, N55G, I59S, D61A
VL: B1 VL
B8: suPAR_DB06_D08 (scFv, V domains shown)
VH: B1 VH with H53P, N55G, I59S
VL: B1 VL
B9: suPAR_DB06_D02 (scFv, V domains shown)
VH: B1 VH with N31S, Y32N
VL: B1 VL with R26S
B10: suPAR_DB06_E04 (scFv, V domains shown)
VH: B1 VH with Y27D, T30S, N31S, V102M
VL: B1 VL with S24R, A54Q
B11: suPAR_DB06_E12 (scFv, V domains shown)
VH: B1 VH with N31S, I59S, D61A
VL: B1 VL with S24R
B12: suPAR_DB06_C03 (scFv, V domains shown)
VH: B1 VH with N31S, H53P, E54N, N55S, N57G, I59N, D61A
VL: B1 VL
B13: suPAR_DB06_D11 (scFv, V domains shown)
VH: B1 VH with T30A, M34V, M48V, W50M, H53P, E54G, N55G, N57T, I59N, D61A
VL: B1 VL with S24R, S27Q
B14: suPAR_DB06_B12 (scFv, V domains shown)
VH: B1 VH with H53P, N55G
VL: B1 VL
B15: suPAR_DB06_E02 (scFv, V domains shown)
VH: B1 VH with T28S
VL: B1 VL
B16: suPAR_DB06_C07 (scFv, V domains shown)
VH: B1 VH with H53P, E54N, N55G, N57G, I59Q, D61A
VL: B1 VL
B17: suPAR_DB06_B10 (scFv, V domains shown)
VH: B1 VH with Y27D, F29L, N57S, D61A
VL: B1 VL with A54Q, S55T
B18: suPAR_DB06_D12 (scFv, V domains shown)
VH: B1 VH with Y27G, T30S, N31S, H53P, D61A
VL: B1 VL with S27Q, N52S
B19: suPAR_DB06_E06 (scFv, V domains shown)
VH: B1 VH with Y27D, F29S, N31S, N57S
VL: B1 VL
B20: suPAR_DB06_D05 (scFv, V domains shown)
VH: B1 VH with Y27G, N31G, H53P, E54S, N55G
VL: B1 VL with S27Q
B21: suPAR_DB06_D09 (scFv, V domains shown)
VH: B1 VH with Y27G, N31S, N57S, D61A
VL: B1 VL with R26S
B22: suPAR_DB06_D10 (scFv, V domains shown)
VH: B1 VH with N31S, H53P, D61A
VL: B1 VL
B23: suPAR_DB06_E08 (scFv, V domains shown)
VH: B1 VH with T28G, N31D, E54S, N55G, D61A
VL: B1 VL with S27Q
B24: suPAR_DB06_E05 (scFv, V domains shown)
VH: B1 VH with N31S, Y32H, M34I, H35Q, Y100T
VL: B1 VL
B25: suPAR_DB06_C10 (scFv, V domains shown)
VH: B1 VH with T30S, N31A, H53P, E54S
VL: B1 VL
B26: suPAR_DB06_C09 (scFv, V domains shown)
VH: B1 VH with N31S, H53P
VL: B1 VL with S24R
B27: suPAR_DB06_E03 (scFv, V domains shown)
VH: B1 VH with Y27F, T28N, F29I, T30K, N31D, M34I, H53P, I59S
VL: B1 VL
B28: suPAR_DB06_F01 (scFv, V domains shown)
VH: B1 VH with Y27G, N31S, M34V, H53P, N55G, I59S
VL: B1 VL
B29: suPAR_DB06_B11 (scFv, V domains shown)
VH: B1 VH with N31S, Y32N, M34I, R98E
VL: B1 VL with S24R, S27Q
B30: suPAR_DB06_E07 (scFv, V domains shown)
VH: B1 VH with M34L, H53P, E54H, N55S, N57G, I59N, D61A, R98S
VL: B1 VL
B31: suPAR_DB06_E11 (scFv, V domains shown)
VH: B1 VH with N31G, D61A
VL: B1 VL with R26S
B32: suPAR_DB06_E09 (scFv, V domains shown)
VH: B1 VH with Y27H, M34V, N57S, I59S
VL: B1 VL
B33: suPAR_DB06_D07 (scFv, V domains shown)
VH: B1 VH with N55G, D61A
VL: B1 VL
B34: suPAR_DB06_C01 (scFv, V domains shown)
VH: B1 VH with N31G, H53P, E54S
VL: B1 VL with S27Q, V29I
B35: suPAR_DB02_H01 (scFv, V domains shown)
VH: B1 VH with N31G, Y32Q, M34I, E54S, N55G, N57S, R98G
VL: B1 VL with N52S
notes: scFv clone from phage display
B36: suPAR_DB02_H05 (scFv, V domains shown)
VH: B1 VH with T28F, N31A, H53P
VL: B1 VL
notes: scFv clone from phage display
B37: suPAR_DB02_H03 (scFv, V domains shown)
VH: B1 VH with N31T, H53P, N55G, N57S
VL: B1 VL
notes: scFv clone from phage display

Numbering of substitutions follows the chain as printed.

The target in the first assay is T1, human soluble urokinase plasminogen activator receptor (suPAR) (human, UniProt Q03405 23-303, limits assumed).
T1 construct: Target antigen of the scFv off-rate screen; also called hsuPAR; human suPAR
Nature of the assay: BLI (Octet) off-rate screen of scFv clones.
T1 sequence (Q03405 23-303 limits assumed): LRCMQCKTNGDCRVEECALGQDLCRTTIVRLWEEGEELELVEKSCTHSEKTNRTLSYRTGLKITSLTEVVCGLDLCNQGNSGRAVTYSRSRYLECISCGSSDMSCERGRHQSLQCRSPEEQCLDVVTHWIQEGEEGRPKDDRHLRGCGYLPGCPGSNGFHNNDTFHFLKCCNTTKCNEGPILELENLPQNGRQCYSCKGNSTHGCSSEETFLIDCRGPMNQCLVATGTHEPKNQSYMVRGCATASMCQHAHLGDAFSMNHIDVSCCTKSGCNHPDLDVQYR
B1 came in with a koff of 0.00402 s⁻¹.
Take B2: the off-rate (koff) is 0.00157 s⁻¹.
Take B3: the koff is 0.00484 s⁻¹.
For the molecule B4, the koff came to 0.00526 s⁻¹.
Take B5: the off-rate (koff) came out at 0.00406 s⁻¹.
As to B6, the koff was 0.00201 s⁻¹.
Still for that read-out and setting: to B7 belongs 0.00311 s⁻¹; to B8, 0.00166 s⁻¹; to B9, 0.00422 s⁻¹.
Molecule B10 had a koff of 0.00541 s⁻¹.
B11 registered a koff of 0.00373 s⁻¹.
B12 registered a koff of 0.00347 s⁻¹.
Still for that read-out and setting: as for B13, the figure is 0.0021 s⁻¹; as for B14, 0.00203 s⁻¹.
In the case of B15, the koff came out at 0.00189 s⁻¹.
Regarding B16, the koff worked out at 0.00495 s⁻¹.
On to B17, for which the koff came out at 0.00141 s⁻¹.
Take B18: the koff was determined as 0.00515 s⁻¹.
B19 gave a koff of 0.00135 s⁻¹.
In turn, B20 yielded a koff of 0.00558 s⁻¹.
The molecule B21 returned a koff of 0.00149 s⁻¹.
On the same count and under the same terms, as for B22, the figure is 0.00425 s⁻¹; as for B23, 0.00335 s⁻¹; as for B24, 0.00315 s⁻¹.
Same read-out and setting: as for B25, the figure is 0.00599 s⁻¹.
In turn, B26 registered a koff of 0.00382 s⁻¹.
Same read-out and setting: as for B27, the figure is 0.00201 s⁻¹.
B28 displayed a koff of 0.00305 s⁻¹.
In the case of B29, the koff came out at 0.00489 s⁻¹.
In turn, B30 came in with a koff of 0.00497 s⁻¹.
B31 yielded a koff of 0.00118 s⁻¹.
The molecule B32 came in with a koff of 0.00316 s⁻¹.
The molecule B33 registered a koff of 0.00244 s⁻¹.
Molecule B34 came in with a koff of 0.00233 s⁻¹.

Another assay concerns the target T2, cynomolgus soluble urokinase plasminogen activator receptor (suPAR) (cynomolgus, UniProt Q9GK78 23-303, limits assumed).
T2 construct: Target antigen of the scFv off-rate screen; also called cynomolgus suPAR; cynomolgus uPAR
Nature of the assay: BLI (Octet) off-rate screen of scFv clones.
Target sequence in this assay (Q9GK78 23-303 limits assumed): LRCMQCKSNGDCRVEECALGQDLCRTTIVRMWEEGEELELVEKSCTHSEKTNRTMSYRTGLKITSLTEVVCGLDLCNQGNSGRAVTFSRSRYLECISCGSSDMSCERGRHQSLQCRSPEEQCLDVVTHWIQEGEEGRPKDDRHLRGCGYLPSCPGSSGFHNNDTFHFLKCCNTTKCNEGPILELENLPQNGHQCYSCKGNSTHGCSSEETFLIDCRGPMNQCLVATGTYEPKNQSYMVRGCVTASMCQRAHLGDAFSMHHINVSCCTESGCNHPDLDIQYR
As to B1, the koff turned out to be 0.000455 s⁻¹.
In turn, B2 had a koff of 0.000258 s⁻¹.
The molecule B3 yielded an off-rate constant (koff) of 7.52e-05 s⁻¹.
In the case of B4, the koff turned out to be 0.000271 s⁻¹.
The same measure, in the same setting: as for B5, the figure is 0.000261 s⁻¹; as for B6, 0.000631 s⁻¹; as for B7, 0.00025 s⁻¹.
In the case of B8, the koff came to 0.000715 s⁻¹.
The molecule B9 registered a koff of 0.00023 s⁻¹.
The molecule B10 showed a koff of 0.000388 s⁻¹.
Take B11: the koff came out at 0.000164 s⁻¹.
In the case of B12, the koff turned out to be 0.000332 s⁻¹.
The same measure, in the same setting: to B13 belongs 0.000439 s⁻¹.
The same measure, in the same setting: as for B14, the figure is 0.000293 s⁻¹; as for B15, 0.000589 s⁻¹; as for B16, 0.000387 s⁻¹.
For the molecule B17, the koff stood at 0.000587 s⁻¹.
The same measure, in the same setting: to B18 belongs 0.000189 s⁻¹.
Take B19: the off-rate (koff) was 0.000319 s⁻¹.
The molecule B20 showed a koff of 0.000222 s⁻¹.
Same read-out and setting: to B21 belongs 0.000341 s⁻¹; to B22, 0.000365 s⁻¹.
Consider B23, for which the koff is 2.02e-05 s⁻¹.
The molecule B24 yielded a koff of 0.000905 s⁻¹.
Regarding B25, the koff was 0.00048 s⁻¹.
As to B26, the koff came to 0.000566 s⁻¹.
For the molecule B27, the koff is 0.00037 s⁻¹.
For B28, the koff turned out to be 0.000197 s⁻¹.
B29 registered a koff of 0.000128 s⁻¹.
In turn, B30 registered an off-rate constant (koff) of 0.000388 s⁻¹.
The molecule B31 registered a koff of 0.000723 s⁻¹.
B32 displayed a koff of 0.000301 s⁻¹.
As for B33, the koff was 0.000565 s⁻¹.
On to B34, for which the koff came out at 1.49e-05 s⁻¹.

The next assay addresses T3, human soluble urokinase plasminogen activator receptor (suPAR) (human, UniProt Q03405 23-303, limits assumed).
T3 construct: Column head says only 'human'; also called human suPAR; hsuPAR
Nature of the assay: BLI (Octet) off-rate screen of scFv clones.
T3 sequence (Q03405 23-303 limits assumed): as the sequence (Q03405 23-303 limits assumed) above
For the molecule B35, the koff was 0.00315 s⁻¹.
Molecule B36 returned a koff of 0.00442 s⁻¹.
The same measure, in the same setting: as for B37, the figure is 0.00594 s⁻¹.

A further assay deals with T4, cynomolgus soluble urokinase plasminogen activator receptor (suPAR) (cynomolgus, UniProt Q9GK78 23-303, limits assumed).
T4 construct: Column head says only 'cynomologus'; also called cynomolgus suPAR; cynomolgus uPAR
Description: BLI (Octet) off-rate screen of scFv clones.
Target sequence in this assay (Q9GK78 23-303 limits assumed): as the sequence (Q9GK78 23-303 limits assumed) above
For the molecule B35, the koff came to 0.000218 s⁻¹.
B36 returned a koff of 0.00021 s⁻¹.
The same measure, in the same setting: as for B37, the figure is 0.000524 s⁻¹.
